{
  "source": "patent US20190211098A1",
  "about": "(Genentech, published 2019)",
  "binders": {"B1": {"name": "NPDC1 extracellular domain (1-190 aa) fused to murine IgG2a Fc (Fc fusion)", "chain": "GHPDVAACPGSLDCALKRRARCPPGAHACGPCLQPFQEDQQGLCVPRMRRPPGGGRPQPRLEDEIDFLAQELARKESGHSTPPLPKDRQRLPEPATLGFSARGQGLELGLPSTPGTPTPTPHTSLGSPVSSDPVHMSPLEPRGGQGDGLALVLILA", "notes": "also called NPDC1-mFc; NPDC1-mFC; not shown: Fc region of murine IgG2a, C-terminal tag"}, "B2": {"name": "NPDC1-His (ligand)", "chain": "GHPDVAACPGSLDCALKRRARCPPGAHACGPCLQPFQEDQQGLCVPRMRRPPGGGRPQPRLEDEIDFLAQELARKESGHSTPPLPKDRQRLPEPATLGFSARGQGLELGLPSTPGTPTPTPHTSLGSPVSSDPVHMSPLEPRGGQGD", "notes": "not shown: His tag"}, "B3": {"name": "PILRA R78 variant extracellular domain fused to murine IgG2a Fc (Fc fusion)", "chain": "QPSGSTGSGPSYLYGVTQPKHLSASMGGSVEIPFSFYYPWELATAPDVRISWRRGHFHRQSFYSTRPPSIHKDYVNRLFLNWTEGQKSGFLRISNLQKQDQSVYFCRVELDTRSSGRQQWQSIEGTKLSITQAVTTTTQRPSSMTTTWRLSSTTTTTGLRVTQGKRRSDSWHISLET", "notes": "also called PILRA-mFc R78; PILRA-Fc R78; not shown: Fc region of murine IgG2a, C-terminal tag"}},
  "key": {"[1]": {"target": "T1, A141 variant of PILRA (S141A), full-length, expressed on transfected 293T cells (human, UniProt Q9UKJ1 20-303)", "T1 construct": "Point mutation put into the full-length G78 construct by site-directed mutagenesis", "experiment": "flow cytometry, soluble NPDC1-mIgG2a on PILRA-variant-transfected 293T cells", "method": "(§1) Relative PILRA-ligand binding to PILRA variant transfected cells was performed as follows. […] Double positive cells were gated on the G78 sample and then the gates were overlaid on subsequent samples to maintain the same cell population throughout the experiment."}, "[2]": {"target": "T2, A140 variant of PILRA (Q140A), full-length, expressed on transfected 293T cells (human, UniProt Q9UKJ1 20-303)", "T2 construct": "Point mutation put into the full-length G78 construct by site-directed mutagenesis", "experiment": "flow cytometry, soluble NPDC1-mIgG2a on PILRA-variant-transfected 293T cells", "method": "as §1"}, "[3]": {"target": "T3, R78 variant of PILRA (AD-protective), full-length, on cells (human, UniProt Q9UKJ1 20-303)", "T3 construct": "also called PILRA R78; rs1859788 variant", "experiment": "flow cytometry, soluble NPDC1-mIgG2a on PILRA-variant-transfected 293T cells", "method": "as §1"}, "[4]": {"target": "T4, Murine PILRA-His (mouse, UniProt Q2YFS3 32-198)", "T4 construct": "not shown: His tag", "T4 sequence (Q2YFS3 32-198 limits assumed)": "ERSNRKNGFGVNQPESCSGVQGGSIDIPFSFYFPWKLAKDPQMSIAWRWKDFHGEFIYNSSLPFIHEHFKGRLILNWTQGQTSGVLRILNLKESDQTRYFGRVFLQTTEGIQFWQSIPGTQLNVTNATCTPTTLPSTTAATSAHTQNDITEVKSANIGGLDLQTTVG", "experiment": "array SPR imaging, sandwich format: mAb 2 on the chip, murine PILRA-His 100 nM, then Fc-tagged ligand at 10 ug/ml; response normalised to the PILRA level"}, "[5]": {"target": "T5, A76 variant of PILRA, full-length, expressed on transfected 293T cells (human, UniProt Q9UKJ1 20-303)", "T5 construct": "Point mutation put into the full-length G78 construct by site-directed mutagenesis; also called F76 substituted to alanine", "experiment": "flow cytometry, soluble NPDC1-mFc 50 ug/ml on PILRA-variant-transfected 293T cells", "method": "as §1\n(§2) Cells were washed and NPDC1 and PILRA cell surface staining was assessed by flow cytometry using anti-mIgG2a-FITC and anti-PILRA antibodies, respectively. […] Binding of the G78 variant of PILRA to NPDC1 was considered 100%."}, "[6]": {"target": "T6, G80 variant of PILRA, full-length, expressed on transfected 293T cells (human, UniProt Q9UKJ1 20-303)", "T6 construct": "Point mutation put into the full-length G78 construct by site-directed mutagenesis; also called S80 substituted to glycine", "experiment": "flow cytometry, soluble NPDC1-mFc 50 ug/ml on PILRA-variant-transfected 293T cells", "method": "as §1, §2"}, "[7]": {"target": "T7, A72 variant of PILRA, full-length, expressed on transfected 293T cells (human, UniProt Q9UKJ1 20-303)", "T7 construct": "Point mutation put into the full-length G78 construct by site-directed mutagenesis; also called R72 substituted to alanine", "experiment": "flow cytometry, soluble NPDC1-mFc 50 ug/ml on PILRA-variant-transfected 293T cells", "method": "as §1, §2"}, "[8]": {"target": "T3, R78 variant of PILRA (AD-protective), …", "experiment": "flow cytometry, soluble NPDC1-mFc 50 ug/ml on PILRA-variant-transfected 293T cells", "method": "as §1, §2"}, "[9]": {"target": "T8, Biotinylated mouse PILRA ECD (mouse, UniProt Q2YFS3 32-198, biotinylated (sites not given))", "T8 construct": "Captured on Neutravidin plates; also called mPILRA; recombinant PILRA ECD", "T8 sequence (Q2YFS3 32-198 limits assumed)": "as above", "experiment": "competitive ELISA: biotinylated mouse PILRA ECD on Neutravidin plate, antibody titrated together with a fixed amount of mouse C12orf53-Fc, bound ligand-Fc detected with anti-human IgG-Fc-HRP"}, "[10]": {"target": "T8, Biotinylated mouse PILRA ECD", "experiment": "competitive ELISA: biotinylated mouse PILRA ECD on Neutravidin plate, antibody titrated together with a fixed amount of mouse CD99-Fc, bound ligand-Fc detected with anti-human IgG-Fc-HRP", "method": "The PILRA ECD-based competitive ELISA was performed as follows. […] Plates were blocked with 0.5% bovine serum albumin, 15 ppm Proclin 300 (Supelco, Bellefonte, Pa.) in PBS (80 μl/well) at room temperature for 1 h and washed. Biotinylated mouse PILRA ECD at 0.25 μg/ml (Genentech, Inc.) in 0.5% bovine serum albumin, 0.05% polysorbate 20, 15 ppm Proclin 300 in PBS, pH 7.4 (assay buffer) was added to the plates. After 1.5 hrs incubation, plates were washed. […] The mixture of the serially diluted antibody and ligand-Fc was added to the plates at 25 μl/well. After a 2 hrs incubation, plates were washed. […] After a 1 hr incubation, plates were washed and the substrate 3,3′,5,5′-tetramethyl benzidine (Moss Inc., TMBE-1000) was added. The reaction was stopped by adding 1 M phosphoric acid. The absorbance was read at 450 nm using a microplate reader (Multiskan Ascent, Thermo Scientific, Waltham, Mass.). The titration curves were plotted using KaleidaGraph (Synerg Software, Reading, Pa.)."}, "[11]": {"target": "T9, Mouse PILRA extracellular domain fused to human CD3 zeta chain transmembrane and intracellular domains, on … (mouse; human)", "T9 construct": "domain: transmembrane and intracellular domains; also called cell surface PILRA", "T9 sequence (P20963 other isoform, or with tags, fused parts or gaps limits assumed)": "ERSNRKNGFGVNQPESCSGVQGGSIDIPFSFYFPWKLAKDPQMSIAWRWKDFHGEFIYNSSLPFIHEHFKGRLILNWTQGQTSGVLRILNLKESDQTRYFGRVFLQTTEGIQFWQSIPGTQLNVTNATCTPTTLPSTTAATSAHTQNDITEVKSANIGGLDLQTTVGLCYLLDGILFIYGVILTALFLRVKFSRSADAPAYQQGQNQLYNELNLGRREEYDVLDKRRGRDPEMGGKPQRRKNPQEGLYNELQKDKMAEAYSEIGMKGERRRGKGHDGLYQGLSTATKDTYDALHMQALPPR", "experiment": "cell-based competitive ELISA: 293-PILRA stable cells, antibody titrated together with a fixed amount of mouse CD99-Fc, bound ligand-Fc detected with anti-human IgG-Fc-HRP", "method": "After plates were centrifuged at 1200 rpm for 5 min at 4° C., the supernatant was decanted and the mixture of the serially diluted antibody and the ligand-Fc was added. Plates were incubated at 4° C. for 1 h with gentle shaking. Cells were washed with ice-cold 0.1% BSA in PBS, pH 7.4 (wash buffer) by centrifuging the plate at 1200 rpm for 5 min at 4° C. and the cells were resuspended in 200 μl wash buffer. […] Plates were incubated at 4° C. for 1 hr with gentle shaking. Cells were washed with ice-cold wash buffer 4 times. Cells were resuspended in 100 μl of the substrate 3,3′,5,5′-tetramethyl benzidine (Moss Inc., TMBE-1000) and plates were incubated at room temperature for approximately 20 min for color development. The reaction was stopped by adding 1 M phosphoric acid. The absorbance was read at 450 nm using a microplate reader (Multiskan Ascent, Thermo Scientific, Waltham, Mass.). The titration curves were plotted using KaleidaGraph (Synerg Software, Reading, Pa.)."}, "[12]": {"target": "B3", "experiment": "SPR, NPDC1-His binding to PILRA variant"}, "[13]": {"target": "T10, Full length myc-DDK tagged PIANP, expressed on transfected 293T cells (human, UniProt Q8IYJ0 32-282)", "T10 construct": "Bought construct (Origene Cat. No. RC207868); also called myc-PIANP; C12orf53 (human); not shown: myc-DDK tag of the Origene construct RC207868", "T10 sequence": "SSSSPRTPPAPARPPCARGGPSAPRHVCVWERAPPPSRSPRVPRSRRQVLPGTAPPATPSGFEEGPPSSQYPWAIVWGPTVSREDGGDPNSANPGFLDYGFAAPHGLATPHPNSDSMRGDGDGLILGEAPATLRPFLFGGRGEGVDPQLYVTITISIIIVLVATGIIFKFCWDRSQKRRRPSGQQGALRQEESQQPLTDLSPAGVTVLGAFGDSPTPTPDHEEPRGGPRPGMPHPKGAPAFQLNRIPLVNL", "experiment": "flow cytometry: soluble PILRA-mFc variant (50 ug/ml) on myc-PIANP-transfected 293T cells, FITC anti-mouse IgG2a; MFI as % of G78 (= 100 %)"}, "[14]": {"target": "B2", "experiment": "SPR, NPDC1-His binding to PILRA variant"}, "[15]": {"target": "T11, HSV-1 glycoprotein B, full length, expressed on transfected 293T cells (human herpes simplex virus type-1, UniProt P06437 31-904)", "T11 construct": "Construct cloned from EF157316 (strain KOSc); also called HSV-1 gB; human herpesvirus 1 strain KOSc glycoprotein B (EF157316)", "experiment": "flow cytometry: soluble PILRA-mFc variant (50 ug/ml) on HSV-1 gB-transfected 293T cells, FITC anti-mouse IgG2a; MFI as % of G78 (= 100 %)"}, "[16]": {"target": "B2", "experiment": "SPR, NPDC1-His binding to PILRA variant", "remark": "listed apart in the source"}, "[17]": {"target": "B1", "experiment": "SPR (ProteOn XPR36): PILRA-mFc A140 amine-coupled to a GLC chip, 100 nM NPDC1-mFc injected", "method": "PILRA variant ligand binding Surface Plasmon Resonance (SPR) was performed as follows.\nNext, the interaction of PILRA variants and ligands in vitro using surface plasmon resonance (SPR) was investigated."}, "[18]": {"target": "T9, Mouse PILRA extracellular domain fused …", "experiment": "cell-based competitive ELISA: 293-PILRA stable cells, antibody titrated together with a fixed amount of mouse CD99-Fc"}, "[19]": {"target": "T8, Biotinylated mouse PILRA ECD", "experiment": "competitive ELISA: biotinylated mouse PILRA ECD on Neutravidin plate, antibody titrated together with a fixed amount of mouse CD99-Fc"}},
  "data": [
    {"binder": "B1", "values": [
      {"measurement": "% of G78 binding", "setting": "[1]", "result": "117 % of G78"},
      {"measurement": "% of G78 binding", "setting": "[2]", "result": "22 % of G78"},
      {"measurement": "% of G78 binding", "setting": "[3]", "result": "44 % of G78"},
      {"measurement": "binding result", "setting": "[4]", "result": "binds"},
      {"measurement": "% of G78 variant binding", "setting": "[5]", "result": "~20 % of G78 variant"},
      {"measurement": "% of G78 variant binding", "setting": "[6]", "result": "~60 % of G78 variant"},
      {"measurement": "% of G78 variant binding", "setting": "[7]", "result": "~20 % of G78 variant"},
      {"measurement": "% of G78 variant binding", "setting": "[8]", "result": "~35 % of G78 variant"}
    ]},
    {"binder": "Anti-mouse PILRA antibody 12H1.8 (antibody, mouse IgG2a, kappa, V domains shown) VH: QVQLQQSGAELVGPGTSVKISCQASGYTFTNYWIGWAKQRPGHGLEWIGDIYPGGGYTNYNKKFKGKATLTADKSSSTAYMQFSSLTSEDSAIYYCSRSRGHGSNFYWYFDVWGTGTTVTVSS VL: DIVMTQSPKFMSTSVGDRVNITCRASQDVNTAVAWFQQKPGRSPKLLIYSASYRYTGPDHFTGSGSGTDFTFTISSVQAEDLAVYYCQQHYTTPLTFGAGTKLEIKR", "values": [
      {"measurement": "IC50 (read off the curve)", "setting": "[9]", "result": "~4", "unit": "nM"},
      {"measurement": "IC50 (read off the curve)", "setting": "[10]", "result": "~4", "unit": "nM"},
      {"measurement": "IC50 (read off the curve)", "setting": "[11]", "result": "~8", "unit": "nM"}
    ]},
    {"binder": "B2", "values": [
      {"measurement": "Kd", "setting": "[12]", "result": 76.5, "unit": "nM"},
      {"measurement": "kon", "setting": "[12]", "result": 6800, "unit": "M⁻¹ s⁻¹"}
    ]},
    {"binder": "B3", "values": [
      {"measurement": "binding result", "setting": "[13]", "result": "binds"},
      {"measurement": "fold lower affinity than the G78 variant", "setting": "[14]", "result": "~4.5", "unit": "fold"},
      {"measurement": "fold lower kon than the G78 variant", "setting": "[14]", "result": "~3", "unit": "fold"},
      {"measurement": "binding result", "setting": "[15]", "result": "binds"}
    ]},
    {"binder": "PILRA G80 variant extracellular domain fused to murine IgG2a Fc (Fc fusion, also called PILRA-mFc G80; not shown: Fc region of murine IgG2a, C-terminal tag) QPSGSTGSGPSYLYGVTQPKHLSASMGGSVEIPFSFYYPWELATAPDVRISWRRGHFHGQGFYSTRPPSIHKDYVNRLFLNWTEGQKSGFLRISNLQKQDQSVYFCRVELDTRSSGRQQWQSIEGTKLSITQAVTTTTQRPSSMTTTWRLSSTTTTTGLRVTQGKRRSDSWHISLET", "values": [
      {"measurement": "binding result", "setting": "[13]", "result": "binds"},
      {"measurement": "binding result", "setting": "[15]", "result": "binds"},
      {"measurement": "Kd", "setting": "[16]", "result": 30, "unit": "nM"},
      {"measurement": "kon", "setting": "[16]", "result": 17000, "unit": "M⁻¹ s⁻¹"}
    ]},
    {"binder": "PILRA A140 variant (Q140A) extracellular domain fused to murine IgG2a Fc (Fc fusion, also called PILRA-mFc A140; PILRA-Fc A140; not shown: Fc region of murine IgG2a, C-terminal tag) QPSGSTGSGPSYLYGVTQPKHLSASMGGSVEIPFSFYYPWELATAPDVRISWRRGHFHGQSFYSTRPPSIHKDYVNRLFLNWTEGQKSGFLRISNLQKQDQSVYFCRVELDTRSSGRQQWASIEGTKLSITQAVTTTTQRPSSMTTTWRLSSTTTTTGLRVTQGKRRSDSWHISLET", "values": [
      {"measurement": "binding result", "setting": "[17]", "result": "binds"}
    ]},
    {"binder": "Isotype control antibody 12D4 (antibody, mouse IgG2a, kappa, V domains shown) VH: QVQLQQSGAELVTPGASVKLSCKTSGHTFTSYWMNWVNQKPGQGLEWIGWIYGGSGNTKYNQKFQGKATLTVDTSSSTAYMELRSLTSDDSAVYFCASGTNFFDYWGQGTMVTVSS VL: DIVMTQSHKFMSTSVGDRVSITCKASQDVSTAVAWYQQKPGQSPKLLIYSASYRYTGVPDRFTGSGSGTDFTFTISSVQAEDLAVYYCQQHYSTPLTFGAGTKLELKR", "values": [
      {"measurement": "binding result", "setting": "[18]", "result": "no binding (tested: 200 nM)"},
      {"measurement": "binding result", "setting": "[19]", "result": "no binding (tested: 200 nM)"}
    ]},
    {"binder": "Mouse PILRA ligand C12orf53 fused to human IgG1 Fc (Fc fusion, also called C12orf53-Fc; mouse C12orf53-Fc; not shown: human IgG1 Fc) SSHRSPPAPARPPCVRGGPSAPRHVCVWERAPPPSRSPRVPRSRRQVVPGTAPPATPSGFEEGPPSSQYPWAIVWGPTVSREDGGDPNSVNPGFLPLDYGFAAPHGLATPHPNSDSMRDDGDGLILGETPATLRPFLFGGRGEGVDP", "values": [
      {"measurement": "binding result", "setting": "[4]", "result": "binds"}
    ]},
    {"binder": "Anti-mouse PILRA antibody 12C6.9 (antibody, mouse IgG2a, kappa, V domains shown) VH: QIQLVQSGPELKKPGETVKISCKASGYTFTTYGMSWMKQAPGKGLKWMGWINTYSGVPTYADDFKGRFAFSLETSASTAYLQISNLKDEDTARYFCARRDYGSSQWYFDVWSTGTTVTVSS VL: DIVMTQSPKFMSISVGDRVSVTCKASQNVGTKVAWYQQKPGQSPKELIYSASYRFSGVPDRFTGSGSGTDFTLTISSVQSEDLAEYFCQQYNTYPLTFGAGTKLEIKR", "values": [
      {"measurement": "IC50 (read off the curve)", "setting": "[9]", "result": "~3", "unit": "nM"},
      {"measurement": "IC50 (read off the curve)", "setting": "[10]", "result": "~4", "unit": "nM"}
    ]}
  ]
}
